Patent US20220064276A1 (SCHOLAR ROCK, published 2022)
Numbering of substitutions follows the chain as printed. Read-outs that look alike come from different tables or passages of the source.

Key:
[1] = target: T1, human LTBP1-proTGFβ1 complex (human, UniProt Q14766 347-1721; P01137 30-390); experiment: Octet binning; competitor (immobilized second antibody) SR-AB13
T1 construct: Large latent complex: one presenting molecule disulfide-linked to a proTGFβ1 dimer; also called Hu LTBP1-proTGFβ1; huLTBP1 proTGFβ1
T1 sequence (Q14766 347-1721 limits assumed, chain 1 of 2): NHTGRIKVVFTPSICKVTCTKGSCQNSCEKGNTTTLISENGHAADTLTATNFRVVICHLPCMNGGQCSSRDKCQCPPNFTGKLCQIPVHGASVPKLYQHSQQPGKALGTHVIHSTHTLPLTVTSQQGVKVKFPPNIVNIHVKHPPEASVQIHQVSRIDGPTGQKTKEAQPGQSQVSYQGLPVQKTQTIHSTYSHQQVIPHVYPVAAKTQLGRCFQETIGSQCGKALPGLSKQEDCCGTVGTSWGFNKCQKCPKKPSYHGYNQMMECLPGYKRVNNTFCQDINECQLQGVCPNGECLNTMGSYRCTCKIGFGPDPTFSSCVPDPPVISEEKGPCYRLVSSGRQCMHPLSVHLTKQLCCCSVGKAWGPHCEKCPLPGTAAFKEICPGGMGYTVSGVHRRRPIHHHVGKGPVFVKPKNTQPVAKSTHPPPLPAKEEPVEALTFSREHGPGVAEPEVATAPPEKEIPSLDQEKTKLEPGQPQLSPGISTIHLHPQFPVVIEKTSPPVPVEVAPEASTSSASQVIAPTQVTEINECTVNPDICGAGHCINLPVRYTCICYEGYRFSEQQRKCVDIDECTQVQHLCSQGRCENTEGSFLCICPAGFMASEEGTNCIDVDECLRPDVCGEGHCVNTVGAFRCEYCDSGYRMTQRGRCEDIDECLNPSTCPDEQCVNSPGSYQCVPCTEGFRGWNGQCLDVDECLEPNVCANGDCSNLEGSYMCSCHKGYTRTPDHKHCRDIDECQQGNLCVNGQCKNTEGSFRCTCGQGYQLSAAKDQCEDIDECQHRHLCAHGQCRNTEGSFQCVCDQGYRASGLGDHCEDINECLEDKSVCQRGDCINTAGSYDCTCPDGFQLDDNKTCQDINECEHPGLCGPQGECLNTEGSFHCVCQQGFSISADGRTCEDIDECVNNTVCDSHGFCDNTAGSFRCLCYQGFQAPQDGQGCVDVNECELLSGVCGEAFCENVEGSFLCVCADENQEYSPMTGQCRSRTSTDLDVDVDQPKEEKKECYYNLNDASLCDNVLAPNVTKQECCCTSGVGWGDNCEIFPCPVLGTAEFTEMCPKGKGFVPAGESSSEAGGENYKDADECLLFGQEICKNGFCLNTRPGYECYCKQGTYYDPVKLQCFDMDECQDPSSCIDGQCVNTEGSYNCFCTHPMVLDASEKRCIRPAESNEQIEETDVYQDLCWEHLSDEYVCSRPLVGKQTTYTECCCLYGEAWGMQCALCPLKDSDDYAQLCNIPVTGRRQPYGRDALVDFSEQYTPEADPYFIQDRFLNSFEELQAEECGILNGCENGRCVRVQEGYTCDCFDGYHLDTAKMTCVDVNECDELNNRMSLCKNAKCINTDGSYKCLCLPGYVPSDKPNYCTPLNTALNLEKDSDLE
T1 sequence (P01137 30-390 limits assumed, chain 2 of 2): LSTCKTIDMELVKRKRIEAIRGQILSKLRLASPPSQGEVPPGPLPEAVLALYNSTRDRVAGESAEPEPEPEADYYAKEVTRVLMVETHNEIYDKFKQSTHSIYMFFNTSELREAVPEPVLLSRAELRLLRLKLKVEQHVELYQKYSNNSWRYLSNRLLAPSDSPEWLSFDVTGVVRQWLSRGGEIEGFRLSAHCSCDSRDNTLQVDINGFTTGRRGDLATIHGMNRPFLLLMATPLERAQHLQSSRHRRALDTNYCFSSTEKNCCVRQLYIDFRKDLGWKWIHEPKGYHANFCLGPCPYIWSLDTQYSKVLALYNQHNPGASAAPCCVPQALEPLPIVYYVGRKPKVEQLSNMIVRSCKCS
Protocol: (§1) 500 nM of human LTBP1-proTGFb1 complex was pre-incubated with 1 μM of each test antibody. After an overnight incubation, the LTBP1-proTGFβ1+first antibody was tested for binding to a second antibody which was immobilized to an Anti-Human IgG Fc Capture (AHC) sensor tip at 67 nM. The sensor tip was blocked with a negative control antibody (HuNeg) before seeing the LTBP1-proTGFβ1+first antibody.
(§2) Normalized responses less than 70% or less than 0.7 of the uninhibited interaction were considered antibodies that cross block.

[2] = target: T2, mouse LTBP1-proTGFβ1 complex (mouse, UniProt Q8CG19 339-1712; P04202 30-390); experiment: Octet (bio-layer interferometry), yeast expressed IgG1Agly antibody, antigen at a single 100 nM per Example 6, 1:1 fit; value printed under the panel
T2 construct: Exemplary entries; In the cell assays expressed from mouse LTBP1S and mouse proTGFb1 plasmids in LN229 cells; also called Mo LTBP1-proTGFβ1; MuLTBP1-ProTGFb1
T2 sequence (Q8CG19 339-1712 limits assumed, chain 1 of 2): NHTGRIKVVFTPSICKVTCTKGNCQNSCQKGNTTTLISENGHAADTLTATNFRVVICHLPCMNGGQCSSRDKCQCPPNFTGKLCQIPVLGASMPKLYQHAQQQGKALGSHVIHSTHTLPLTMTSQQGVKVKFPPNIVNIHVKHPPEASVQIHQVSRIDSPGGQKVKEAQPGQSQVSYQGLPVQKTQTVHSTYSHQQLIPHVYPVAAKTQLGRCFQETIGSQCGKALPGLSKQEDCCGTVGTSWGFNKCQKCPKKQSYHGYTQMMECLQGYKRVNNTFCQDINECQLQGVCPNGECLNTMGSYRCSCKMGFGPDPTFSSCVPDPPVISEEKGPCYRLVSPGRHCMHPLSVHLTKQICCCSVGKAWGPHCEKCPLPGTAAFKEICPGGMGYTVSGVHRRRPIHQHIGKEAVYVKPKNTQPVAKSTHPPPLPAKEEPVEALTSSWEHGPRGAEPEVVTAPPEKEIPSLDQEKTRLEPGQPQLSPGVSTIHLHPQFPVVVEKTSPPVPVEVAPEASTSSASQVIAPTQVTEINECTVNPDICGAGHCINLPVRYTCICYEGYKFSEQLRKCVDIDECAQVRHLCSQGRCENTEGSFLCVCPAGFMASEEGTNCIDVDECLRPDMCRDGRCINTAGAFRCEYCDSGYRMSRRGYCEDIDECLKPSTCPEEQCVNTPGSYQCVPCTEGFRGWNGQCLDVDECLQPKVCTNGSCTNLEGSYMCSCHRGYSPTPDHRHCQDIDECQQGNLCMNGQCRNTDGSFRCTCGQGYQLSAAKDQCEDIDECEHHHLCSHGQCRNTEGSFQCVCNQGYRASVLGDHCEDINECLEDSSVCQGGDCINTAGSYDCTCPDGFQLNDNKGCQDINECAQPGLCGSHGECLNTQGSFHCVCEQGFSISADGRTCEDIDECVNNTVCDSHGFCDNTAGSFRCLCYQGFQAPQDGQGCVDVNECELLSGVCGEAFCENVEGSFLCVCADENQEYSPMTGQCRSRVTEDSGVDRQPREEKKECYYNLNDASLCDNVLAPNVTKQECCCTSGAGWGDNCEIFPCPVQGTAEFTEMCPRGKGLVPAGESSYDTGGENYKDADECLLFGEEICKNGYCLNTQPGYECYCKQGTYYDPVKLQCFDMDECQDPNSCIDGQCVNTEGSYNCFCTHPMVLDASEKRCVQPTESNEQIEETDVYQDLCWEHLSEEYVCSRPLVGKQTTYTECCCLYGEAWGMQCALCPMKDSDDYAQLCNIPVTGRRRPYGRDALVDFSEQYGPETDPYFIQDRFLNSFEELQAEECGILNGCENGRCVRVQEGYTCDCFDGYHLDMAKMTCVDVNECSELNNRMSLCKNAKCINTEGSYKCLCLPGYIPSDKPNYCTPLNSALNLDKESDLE
T2 sequence (P04202 30-390 limits assumed, chain 2 of 2): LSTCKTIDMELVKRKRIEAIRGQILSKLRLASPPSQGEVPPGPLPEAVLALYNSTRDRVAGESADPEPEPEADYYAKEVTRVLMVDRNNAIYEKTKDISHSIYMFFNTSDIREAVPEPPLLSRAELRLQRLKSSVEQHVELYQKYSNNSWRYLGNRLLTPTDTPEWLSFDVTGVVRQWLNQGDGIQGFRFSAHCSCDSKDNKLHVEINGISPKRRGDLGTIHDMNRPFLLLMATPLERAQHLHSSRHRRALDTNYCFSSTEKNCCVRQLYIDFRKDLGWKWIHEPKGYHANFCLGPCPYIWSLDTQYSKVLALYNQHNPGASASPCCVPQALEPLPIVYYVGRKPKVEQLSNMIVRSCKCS

[3] = target: T1, human LTBP1-proTGFβ1 complex; experiment: as above
[4] = target: T3, human LTBP3-proTGFβ1 complex (human, UniProt Q9NS15 44-1303; P01137 30-390, limits assumed); experiment: as above
T3 construct: Exemplary entries; also called Hu LTBP3-proTGFβ1; huLTBP3 proTGFb1

[5] = target: T1, human LTBP1-proTGFβ1 complex; experiment: Octet binning; competitor (immobilized second antibody) SR-AB2
Protocol: as §1, §2

[6] = target: T1, human LTBP1-proTGFβ1 complex; experiment: Octet binning; competitor (immobilized second antibody) SR-AB10
Protocol: as §1, §2

[7] = target: T2, mouse LTBP1-proTGFβ1 complex; experiment: Octet BLI, IgG captured
Protocol: (§3) LTBP complex-specific antibodies from the first round of affinity maturation/optimization (SR-AB14, SR-AB16, SR-AB17, SR-AB18, SR-AB19) were selected for a second round of affinity maturation/optimization (i.e., CDR-H3 mutagenesis as described herein) and particular progeny antibodies (SR-AB20, SR-AB21, SR-AB22, SR-AB23, SR-AB24, SR-AB25, SR-AB26, SR-AB27, SR-AB28, and SR-AB29) were assessed for their ability to bind various proTGFβ1 constructs. Binding affinities of the optimized antibodies were measured by Octet against human LTBP1-proTGFβ1, human LTBP3-proTGFbl, mouse LTBP1-proTGFβ1, mouse LTBP3-proTGFbl, and GARP-proTGFβ1 complexes, essentially as described in Example 6. […] The antigens were allowed to associate for 3 minutes followed by a 5-minute dissociation. Kinetics buffer (ForteBio®) was used throughout the experiment, and KD was determined using a 1:1 fitting model for each antibody antigen pair.

[8] = target: T1, human LTBP1-proTGFβ1 complex; experiment: Octet BLI, IgG captured
Protocol: as §3

[9] = target: T3, human LTBP3-proTGFβ1 complex; experiment: Octet BLI, IgG captured
Protocol: as §3

[10] = target: T2, mouse LTBP1-proTGFβ1 complex; experiment: cell-based or functional assay
[11] = target: T4, LTBP-proTGFβ1: transfected human proTGFβ1 presented by endogenous LTBP1/3 of LN229 cells (human); experiment: cell-based or functional assay
T4 sequence (P01137 30-390): as the sequence (P01137 30-390 limits assumed, chain 2 of 2) above

[12] = target: T2, mouse LTBP1-proTGFβ1 complex; experiment: cell-based or functional assay; remark: listed apart in the source
[13] = target: T4, LTBP-proTGFβ1: transfected human …; experiment: cell-based or functional assay; remark: listed apart in the source
[14] = target: T1, human LTBP1-proTGFβ1 complex; experiment: Octet binning; competitor (immobilized second antibody) SR-AB1
Protocol: as §1, §2

[15] = target: T5, human GARP-proTGFβ1 complex (human, UniProt Q14392 18-627; P01137 30-390, limits assumed); experiment: Octet (bio-layer interferometry), yeast expressed IgG1Agly antibody, antigen at a single 100 nM per Example 6
T5 construct: Exemplary entries; also called Hu GARP-proTGFβ1; huGARP proTGFb1
T5 sequence (Q14392 18-627 limits assumed, chain 1 of 2): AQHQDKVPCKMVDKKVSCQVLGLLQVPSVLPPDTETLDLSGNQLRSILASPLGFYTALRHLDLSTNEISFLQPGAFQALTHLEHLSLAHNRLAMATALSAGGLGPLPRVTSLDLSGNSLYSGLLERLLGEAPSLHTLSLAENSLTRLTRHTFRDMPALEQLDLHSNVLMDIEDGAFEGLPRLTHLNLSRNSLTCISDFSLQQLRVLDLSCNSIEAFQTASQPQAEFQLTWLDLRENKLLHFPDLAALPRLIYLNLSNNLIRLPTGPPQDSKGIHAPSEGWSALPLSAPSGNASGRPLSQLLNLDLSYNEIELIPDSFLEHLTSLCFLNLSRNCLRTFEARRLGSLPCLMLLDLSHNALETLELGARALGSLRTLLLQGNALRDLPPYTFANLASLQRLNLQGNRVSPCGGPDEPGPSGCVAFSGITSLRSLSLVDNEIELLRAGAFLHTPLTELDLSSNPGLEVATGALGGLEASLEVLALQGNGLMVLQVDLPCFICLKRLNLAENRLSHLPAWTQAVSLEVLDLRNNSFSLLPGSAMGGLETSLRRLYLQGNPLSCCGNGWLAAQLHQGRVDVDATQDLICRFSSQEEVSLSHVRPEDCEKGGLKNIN
T5 sequence (P01137 30-390 limits assumed, chain 2 of 2): as the sequence (P01137 30-390 limits assumed, chain 2 of 2) above

[16] = target: T6, mouse LTBP3-proTGFβ1 complex (mouse, UniProt Q61810 41-1245; P04202 30-390, limits assumed); experiment: as above
T6 construct: Exemplary entries; also called Mo LTBP3-proTGFβ1; Murine LTBP3 proTGFb1

[17] = target: T5, human GARP-proTGFβ1 complex; experiment: SPR Biacore 8K, Fab up to 100 nM over captured antigen
Protocol: (§4) A Biacore 8K system was employed to determine the monovalent binding affinity and the kinetic parameters for antigen binding of test antibodies. Association and dissociation kinetics of Fab fragments SR-AB42-HuFab, SR-AB63-HuFab and SR-AB43-HuFab to antigen complexes were measured, and resulting ka, kd and KD are provided below. Briefly, the binding kinetics were evaluated by surface plasmon resonance using Biacore 8K (GE Healthcare). Biotinylated capture antigens were immobilized to the chip (10 nM, ˜200 RU loading). A Biotin CAPture sensor chip was used to capture the biotinylated antigens. […] 0 nM was used as a reference. […] 0 nM was used as a reference. Multi-cycle kinetics was employed where each analyte concentration was injected in a separate cycle and the sensor chip surface was regenerated after each cycle. A11 the assays were carried out in freshly prepared 1× HBS-EP+ buffer (10 mM HEPES, 150 mM NaCl, 3 mM EDTA, 0.05% Tween20, pH 7.4). Data were fit globally to a 1:1 binding model to obtain the kinetic parameters. The sensorgram for 0 nM analyte concentration was used as reference.

[18] = target: T7, human LRRC33-proTGFβ1 complex (human, UniProt Q86YC3 19-650; P01137 30-390, limits assumed); experiment: as above
T7 construct: Exemplary entries; also called huLRRC33 proTGFb1; HuLRRC33-ProTGFb1
T7 sequence (Q86YC3 19-650 limits assumed, chain 1 of 2): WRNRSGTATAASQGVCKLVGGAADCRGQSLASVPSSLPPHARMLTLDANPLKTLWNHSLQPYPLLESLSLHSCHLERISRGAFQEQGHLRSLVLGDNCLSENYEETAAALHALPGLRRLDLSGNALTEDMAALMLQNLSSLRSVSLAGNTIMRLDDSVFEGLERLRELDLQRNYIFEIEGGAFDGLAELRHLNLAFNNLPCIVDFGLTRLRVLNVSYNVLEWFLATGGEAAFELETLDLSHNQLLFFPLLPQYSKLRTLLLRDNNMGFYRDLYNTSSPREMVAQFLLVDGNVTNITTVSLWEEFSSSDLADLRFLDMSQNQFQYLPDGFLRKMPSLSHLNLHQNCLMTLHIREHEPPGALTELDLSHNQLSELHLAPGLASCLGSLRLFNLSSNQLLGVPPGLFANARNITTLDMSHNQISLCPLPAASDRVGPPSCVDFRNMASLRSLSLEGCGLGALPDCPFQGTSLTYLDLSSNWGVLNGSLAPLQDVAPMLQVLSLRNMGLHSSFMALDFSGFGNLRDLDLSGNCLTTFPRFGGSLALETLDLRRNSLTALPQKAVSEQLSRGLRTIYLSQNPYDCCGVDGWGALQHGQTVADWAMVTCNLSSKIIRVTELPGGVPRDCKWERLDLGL
T7 sequence (P01137 30-390 limits assumed, chain 2 of 2): as the sequence (P01137 30-390 limits assumed, chain 2 of 2) above
Protocol: as §4

[19] = target: T1, human LTBP1-proTGFβ1 complex; experiment: SPR (Biacore 8K), biotinylated antigen captured, Fab as analyte, 1:1 fit (Example 9); table beside the sensorgrams
Protocol: as §4

[20] = target: T3, human LTBP3-proTGFβ1 complex; experiment: as above
Protocol: as §4

[21] = target: T1, human LTBP1-proTGFβ1 complex; experiment: SPR Biacore 8K, Fab over captured antigen; mean of 4
Protocol: as §4

[22] = target: T3, human LTBP3-proTGFβ1 complex; experiment: SPR Biacore 8K, Fab over captured antigen
Method in brief: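 Biotinylated antigen complexes captured on a Biotin CAPture chip (10 nM, ~200 RU), with Fab fragments injected as analyte by multi-cycle kinetics and regeneration between cycles. Runs in HBS-EP+ pH 7.4, 0 nM analyte as reference; ka, kd and KD from a global 1:1 binding fit.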

B1: SR-AB13 (antibody, IgG1, V domains shown)
VH: QLQLQESGPGLVKPSETLSLTCTVSGGSISSSSYYWGWIRQPPGKGLEWIGSISYSGSTYYNPSLKSRVTISVDTSKNQFSLKLSSVTAADTAVYYCARDPSYDSIAGMDVWGQGTTVTVSS
VL: DIQLTQSPSSLSASVGDRVTITCRASQSISSYLNWYQQKPGKAPKLLIYAASNLQSGVPSRFSGSGSGTDFTLTISSLQPEDFATYYCQQSFDFPFTFGGGTKVEIK
notes: Parent antibody; also called SR-13
- normalized response [1]: 0.47 fraction of uninhibited binding
- Kd [2]: 102 nM
- Kd [3]: 148 nM
- Kd [4]: 71 nM
- normalized response [5]: 1.29 fraction of uninhibited binding
- normalized response [6]: 1.38 fraction of uninhibited binding
- Kd [7]: 59.5 nM
- Kd [8]: 39.2 nM
- Kd [9]: 35.9 nM
- IC50, mLTBP1 assay (CAGA12 luciferase) [10]: 25.4 nM
- IC50, endogenous hLTBP assay (CAGA12 luciferase) [11]: 4.83 nM
- IC50, mLTBP1 assay (CAGA12 luciferase) [12]: 25.4 nM
- IC50, endogenous hLTBP assay (CAGA12 luciferase) [13]: 4.83 nM
- normalized response [14]: 1.08 fraction of uninhibited binding
- binding result [15]: no binding (tested: 100 nM)
- binding result [16]: no binding (tested: 100 nM)

B2: SR-AB63-HuFab (Fab, V domains shown)
VH: B1 VH with S30R, G57A, S58T, R99G, D110Q
VL: B1 VL with F94W, F96L
notes: Human Fab
- Kd [17]: 349 nM
- koff [17]: 0.00093 s⁻¹
- kon [17]: 2660 M⁻¹ s⁻¹
- Kd [18]: 216 nM
- koff [18]: 0.00108 s⁻¹
- kon [18]: 5000 M⁻¹ s⁻¹
- Kd [19]: 0.03 nM
- Kd [20]: 0.1 nM
- Kd [21]: 0.000103 nM
- koff [21]: 3.82e-08 s⁻¹
- kon [21]: 371000 M⁻¹ s⁻¹
- Kd [22]: 0.127 nM
- koff [22]: 4.99e-05 s⁻¹
- kon [22]: 394000 M⁻¹ s⁻¹
